Among the data in paper PMC12607895, “CD46 is a cellular receptor for species D human adenovirus” (mBio, 2025) are Kd values, retold here.

This experiment concerns the target HAdV-C5 virion (human adenovirus C5 (HAdV-C5), UniProt P04133 1-952; P12538 1-571; P11818 1-581, whole virion; only the major capsid proteins listed, minor/core proteins and DNA not named). The experiment can be described thus: SPR; Biacore T200; CD46 or CAR amine-coupled to a CM5 chip (2,390-2,640 RU CD46, 2,380-2,870 RU CAR); whole virions as analyte, twofold series 50-12.5 µg/mL, 120 s at 30 µL/min; 25°C, HBS-EP+ (10 mM HEPES, 150 mM NaCl, 3 mM EDTA, 0.005% P20, pH 7.4); performed once. The note with it: both partners purified. On the technique in general: In SPR one partner is held on a chip, and binding of the other changes the refractive index at the surface.

B1: coxsackievirus and adenovirus receptor (CAR) (receptor)
chain: LSITTPEEMIEKAKGETAYLPCKFTLSPEDQGPLDIEWLISPADNQKVDQVIILYSGDKIYDDYYPDLKGRVHFTSNDLKSGDASINVTNLQLSDIGTYQCKVKKAPGVANKKIHLVVLVKPSGARCYVDGSEEIGSDFKIKCEPKEGSLPLQYEWQKLSDSQKMPTSWLAEMTSSVISVKNASSEYSGTYSCTVRNRVGSDQCLLRLNVVPPSNKAGLIAGAIIGTLLALALIGLIIFCCRKKRREEKYEKEVHHDIREDVPPPKSRTSTARSYIGSNHSSLGSMSPSNMEGYSKTQYNQVPSEDFERTPQSPTLPPAKVAAPNLSRMGAIPVMIPAQSKDGSIV
notes: coxsackievirus and adenovirus receptor (CAR), coupled to the CM5 sensor chip; also called CXADR
For orientation: Kd means a measure of binding affinity in units of concentration. Low readings indicate tighter binding, high ones weaker binding. For B1, the dissociation constant (Kd) amounted to 1.1 pM.
